T1: soluble CD14 protein (sCD14, aa 1-352) (human, UniProt P08571 20-352)
T1 sequence (looked up): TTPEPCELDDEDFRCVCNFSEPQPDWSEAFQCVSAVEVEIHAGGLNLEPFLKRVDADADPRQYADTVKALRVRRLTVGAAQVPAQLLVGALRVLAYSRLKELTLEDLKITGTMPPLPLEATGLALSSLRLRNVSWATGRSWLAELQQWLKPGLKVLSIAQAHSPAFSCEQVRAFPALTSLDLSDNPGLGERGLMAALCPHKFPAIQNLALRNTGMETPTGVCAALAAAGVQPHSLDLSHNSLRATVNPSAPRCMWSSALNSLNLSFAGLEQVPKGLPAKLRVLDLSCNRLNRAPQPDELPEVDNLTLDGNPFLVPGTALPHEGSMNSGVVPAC


Key:
[1] = molecular target: T1, soluble CD14 protein (sCD14, aa 1-352); assay: pull-down
[2] = molecular target: T1, soluble CD14 protein (sCD14, aa 1-352); assay: ELISA

binding result [1] | binding result [2] | Binder
binds | – | GST-HMGB1 (natural protein, human, UniProt P09429 1-215, looked up) MGKGDPKKPRGKMSSYAFFVQTCREEHKKKHPDASVNFSEFSKKCSERWKTMSAKEKGKFEDMAKADKARYEREMKTYIPPKGETKKKFKDPNAPKRPPSAFFLFCSEYRPKIKGEHPGLSIGDVAKKLGEMWNNTAADDKQPYEKKAAKLKEKYEKDIAAYRAKGKPDAAKKGVVKAEKSKKKKEEEEDEEDEEDEEEEEDEEDEDEEEDDDDE
– | binds | 6-His-tagged HMGB1 B box protein (aa 88-162) (domain or fragment, human, UniProt P09429 88-162, looked up) KFKDPNAPKRPPSAFFLFCSEYRPKIKGEHPGLSIGDVAKKLGEMWNNTAADDKQPYEKKAAKLKEKYEKDIAAY

Reference: PMC3193378 (European Journal of Immunology, 2011)
